Data as given in patent US20110091971A1, “Differentiation of Pluripotent Stem Cells” (priority 2008, published 2011).
Residue numbers refer to the chain shown, from its start. Several values for one entry are separate records, joined by “and”; a condition that tells them apart may be missing. Equal values may be shown once.

B1: ACTN1: wild type Activin A mature protein (SwissProt/UniProt: P08476), SEQ ID 2, expressed from applicant's construct (protein)
chain: GLECDGKVNICCKKQFFVSFKDIGWNDWIIAPSGYHANYCEGECPSHIAGTSGSSLSFHSTVINHYRMRGHSPFANLKSCCVPTKLRPMSMLYYDDGQNIIKKDIQNMIVEECGCS
B2: ACTN4: activin A variant peptide, SEQ ID 5 (protein)
chain: B1 chain with I10L, F16L, Y39H, E41S, E43L, A75S, N76D, L77M, K78G, S79A
B3: ACTN48: activin A variant peptide, SEQ ID 49 (protein)
chain: B1 chain with I10L, F16N, Y39E, E41S, E43L, L77M, K78G, S79A, V82I

Test system: H1 or H9 human embryonic stem cells
Test: Activin A bioassay: differentiation of human embryonic stem cells to definitive endoderm, cell number and SOX17 intensity by high content analysis (96-well, four days);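 on Cell Number average: Raw total cell count per well from high content imaging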;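 on Sox 17 Intensity average: total fluorescence of the cell multiplied by cell area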
Type: cell-based
How it was run: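 Read-out was cell count and integrated SOX17 immunofluorescence by high-content imaging, with each well divided by the mean of the 100 ng/ml activin A control. Over the four-day culture, test samples were given in DMEM:F12 with 0.5% FCS plus 20 ng/ml Wnt3a for the first two days and in 2% FCS alone for the last two. Cells were H1 or H9 hESC clusters grown on Matrigel.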

[1] = concentrated supernatant (10x; ACTD3 4x), assay dilution 1:20
[2] = supernatant concentration 1x, assay dilution 1:20
[3] = supernatant concentration 10x, assay dilution 1:20
[4] = supernatant concentration 10x, assay dilution 1:20, assay plates #007, #009, #010
[5] = supernatant concentration 10x, assay dilution 1:40
[6] = supernatant concentration 10x, assay dilution 1:40, control = R&D Sys Activin A 100 ng/ml on same plate
[7] = supernatant concentration 50x, assay dilution 1:20, assay plates #008, #009
[8] = supernatant concentration 50x, assay dilution 1:20, control = R&D Sys Activin A 100 ng/ml on same plate
[9] = supernatant concentration 10x, assay dilution 1:20, control = R&D Sys Activin A 100 ng/ml on same plate

| Molecule | Cell Number average [2] | Cell Number average [3] | Cell Number average [4] | Cell Number average [5] | Sox 17 Intensity average [5] | Sox 17 Intensity % of control [6] | Cell Number average [7] | Sox 17 Intensity average [7] | Sox 17 Intensity % of control [8] | Sox 17 Intensity % of control [9] | also measured |
| --- | --- | --- | --- | --- | --- | --- | --- | --- | --- | --- | --- |
| B1 | 4284 and 5466 | 7083 and 9254 | 12543 and 11568 and 15112 | 5924 | 1.10E+08 | 480.5% | 13673 | 2.60E+08 | 470.1% | – | activity in the cell-based assay, as judged by cell number and SOX17 intensity increases (ACTN 1 pUnder construct versus OriGene wildtype construct, CHO-S or HEK293-F supernatants): greater activity; expression/activity of supernatant measured by SOX17 expression levels (CHOS cells, even after concentrating the supernatant): weak or negligible results; Cell Number average [1]: 12233; Sox 17 Intensity average [1]: 1.15E+08; Sox 17 Intensity % of control (concentrated supernatant (10x; ACTD3 4x), assay dilution 1:20, control = R&D Sys Activin A 100 ng/ml): 263%; expression/activity of supernatant measured by SOX17 expression levels (pUnder expression vector and HEK293F cells): significantly improved |
| B2 | 6380 | 8916 | – | 6548 | 2.075E+08 | 112.8% | – | – | – | 129.7% | higher potency of supernatant concentrated 10× relative to corresponding unconcentrated supernatant (primary screening, SOX17 expression, H1 cells): 2.6 fold; Sox 17 Intensity average [2]: 9.099E+07; Sox 17 Intensity % of control (supernatant concentration 1x, assay dilution 1:20, control = R&D Sys Activin A 100 ng/ml on same plate): 49.5%; Sox 17 Intensity average [3]: 2.385E+08 |
| B3 | – | – | 6030 | – | – | – | 8941 | 3.93E+07 | 157.8% | 71.1% | Sox 17 Intensity average [4]: 1.77E+07 |
